Measurements reported in the supplement of paper PMC5998384.

Columns and labels:
HeLa Kyoto [1] = test: thermal stability score vs G1/S (z-score of summed log2 fold changes over temperatures); higher = more thermally stable than in G1/S
HeLa Kyoto [2] = test: melting temperature (median over replicates), in situ; higher = more thermally stable
HeLa Kyoto [3] = test: solubility in G1/S (NP-40 vs SDS abundance) (log2 ratio); higher = more soluble; conditions: cell cycle stage: G1/S
HeLa Kyoto [4] = test: solubility change mitosis vs G1/S (difference of NP-40 vs SDS log2 ratios) (log2 ratio difference); higher = more soluble in mitosis
[5] = cell cycle stage: early G1 (4.5 h after nocodazole release)
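For melting temperature (median over replicates), in situ in this document: HeLa Kyoto cells synchronized by double thymidine or nocodazole block, proteins quantified by TMT10plex mass spectrometry, three independent biological replicates.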
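For solubility change mitosis vs G1/S (difference of NP-40 vs SDS log2 ratios) in this document: synchronized HeLa Kyoto cells (double thymidine block for G1/S, nocodazole release for mitosis), protein amounts in NP-40 versus SDS lysates quantified by mass spectrometry, three biological replicates.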
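For solubility in G1/S (NP-40 vs SDS abundance) in this document: HeLa Kyoto cells arrested at G1/S by double thymidine block, proteins quantified by TMT10plex mass spectrometry in mild NP-40 versus SDS extracts, three biological replicates.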
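For thermal stability score vs G1/S (z-score of summed log2 fold changes over temperatures) in this document: synchronized HeLa Kyoto cells, proteins quantified by TMT10plex mass spectrometry, three biological replicates, mitosis taken 0.5 h after nocodazole release, G1/S directly after double thymidine block.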

Substance | thermal stability score (HeLa Kyoto [1]; [5]) | thermal stability score (HeLa Kyoto [1]; cell cycle stage: mitosis) | melting temperature (HeLa Kyoto [2]; cell cycle stage: G1/S) [°C] | melting temperature (HeLa Kyoto [2]; cell cycle stage: mitosis) [°C] | solubility in G1/S (log2) (HeLa Kyoto [3]) | solubility change mitosis (log2) (HeLa Kyoto [4])
MSSPASTPSRRGSRRGRATPAQTPRSEDARSSPSQRRRGEDSTSTGELQPMPTSPGVDLQSPAAQDVLFSSPPQMHSSAIPLDFDVSSPLTYGTPSSRVEGTPRSGVRGTPVRQRPDLGSAQKGLQVDLQSDGAAAEDIVASEQSLGQKLVIWGTDVNVAACKENFQRFLQRFIDPLAKEEENVGIDITEPLYMQRLGEINVIGEPFLNVNCEHIKSFDKNLYRQLISYPQEVIPTFDMAVNEIFFDRYPDSILEHQIQVRPFNALKTKNMRNLNPEDIDQLITISGMVIRTSQLIPEMQEAFFQCQVCAHTTRVEMDRGRIAEPSVCGRCHTTHSMALIHNRSLFSDKQMIKLQESPEDMPAGQTPHTVILFAHNDLVDKVQPGDRVNVTGIYRAVPIRVNPRVSNVKSVYKTHIDVIHYRKTDAKRLHGLDEEAEQKLFSEKRVELLKELSRKPDIYERLASALAPSIYEHEDIKKGILLQLFGGTRKDFSHTGRGKFRAEINILLCGDPGTSKSQLLQYVYNLVPRGQYTSGKGSSAVGLTAYVMKDPETRQLVLQTGALVLSDNGICCIDEFDKMNESTRSVLHEVMEQQTLSIAKAGIICQLNARTSVLAAANPIESQWNPKKTTIENIQLPHTLLSRFDLIFLLLDPQDEAYDRRLAHHLVALYYQSEEQAEEELLDMAVLKDYIAYAHSTIMPRLSEEASQALIEAYVDMRKIGSSRGMVSAYPRQLESLIRLAEAHAKVRLSNKVEAIDVEEAKRLHREALKQSATDPRTGIVDISILTTGMSATSRKRKEELAEALKKLILSKGKTPALKYQQLFEDIRGQSDIAITKDMFEEALRALADDDFLTVTGKTVRLL [MCM4] | 0.944 | 0.88 | 50.6 | 50.4 | 0.157 | -0.0425
ZNF629 | 0.477 | -1.32 | 53.4 | 52.9 | -0.355 | -0.0563
MQLRNPELHLGCALALRFLALVSWDIPGARALDNGLARTPTMGWLHWERFMCNLDCQEEPDSCISEKLFMEMAELMVSEGWKDAGYEYLCIDDCWMAPQRDSEGRLQADPQRFPHGIRQLANYVHSKGLKLGIYADVGNKTCAGFPGSFGYYDIDAQTFADWGVDLLKFDGCYCDSLENLADGYKHMSLALNRTGRSIVYSCEWPLYMWPFQKPNYTEIRQYCNHWRNFADIDDSWKSIKSILDWTSFNQERIVDVAGPGGWNDPDMLVIGNFGLSWNQQVTQMALWAIMAAPLFMSNDLRHISPQAKALLQDKDVIAINQDPLGKQGYQLRQGDNFEVWERPLSGLAWAVAMINRQEIGGPRSYTIAVASLGKGVACNPACFITQLLPVKRKLGFYEWTSRLRSHINPTGTVLLQLENTMQMSLKDLL | -3.45 | -2.97 | 55.1 | 56.7 | 0.24 | -0.105
MVAVLGGRGVLRLRLLLSALKPGIHVPRAGPAAAFGTSVTSAKVAVNGVQLHYQQTGEGDHAVLLLPGMLGSGETDFGPQLKNLNKKLFTVVAWDPRGYGHSRPPDRDFPADFFERDAKDAVDLMKALKFKKVSLLGWSDGGITALIAAAKYPSYIHKMVIWGANAYVTDEDSMIYEGIRDVSKWSERTRKPLEALYGYDYFARTCEKWVDGIRQFKHLPDGNICRHLLPRVQCPALIVHGEKDPLVPRFHADFIHKHVKGSRLHLMPEGKHNLHLRFADEFNKLAEDFLQ [BPHL] | 0.683 | 0.206 | 52.7 | 52.4 | 0.0569 | -0.00389
TXNDC5 | 3.49 | 3.79 | 55.3 | 57.3 | 0.348 | -0.0668
MDLYSTPAAALDRFVARRLQPRKEFVEKARRALGALAAALRERGGRLGAAAPRVLKTVKGGSSGRGTALKGGCDSELVIFLDCFKSYVDQRARRAEILSEMRASLESWWQNPVPGLRLTFPEQSVPGALQFRLTSVDLEDWMDVSLVPAFNVLGQAGSGVKPKPQVYSTLLNSGCQGGEHAACFTELRRNFVNIRPAKLKNLILLVKHWYHQVCLQGLWKETLPPVYALELLTIFAWEQGCKKDAFSLAEGLRTVLGLIQQHQHLCVFWTVNYGFEDPAVGQFLQRQLKRPRPVILDPADPTWDLGNGAAWHWDLLAQEAASCYDHPCFLRGMGDPVQSWKGPGLPRAGCSGLGHPIQLDPNQKTPENSKSLNAVYPRAGSKPPSCPAPGPTGAASIVPSVPGMALDLSQIPTKELDRFIQDHLKPSPQFQEQVKKAIDIILRCLHENCVHKASRVSKGGSFGRGTDLRDGCDVELIIFLNCFTDYKDQGPRRAEILDEMRAQLESWWQDQVPSLSLQFPEQNVPEALQFQLVSTALKSWTDVSLLPAFDAVGQLSSGTKPNPQVYSRLLTSGCQEGEHKACFAELRRNFMNIRPVKLKNLILLVKHWYRQVAAQNKGKGPAPASLPPAYALELLTIFAWEQGCRQDCFNMAQGFRTVLGLVQQHQQLCVYWTVNYSTEDPAMRMHLLGQLRKPRPLVLDPADPTWNVGHGSWELLAQEAAALGMQACFLSRDGTSVQPWDVMPALLYQTPAGDLDKFISEFLQPNRQFLAQVNKAVDTICSFLKENCFRNSPIKVIKVVKGGSSAKGTALRGRSDADLVVFLSCFSQFTEQGNKRAEIISEIRAQLEACQQERQFEVKFEVSKWENPRVLSFSLTSQTMLDQSVDFDVLPAFDALGQLVSGSRPSSQVYVDLIHSYSNAGEYSTCFTELQRDFIISRPTKLKSLIRLVKHWYQQCTKISKGRGSLPPQHGLELLTVYAWEQGGKDSQFNMAEGFRTVLELVTQYRQLCIYWTINYNAKDKTVGDFLKQQLQKPRPIILDPADPTGNLGHNARWDLLAKEAAACTSALCCMGRNGIPIQPWPVKAAV [OAS3] | 1.51 | 1.6 | 50.3 | 49.8 | -0.177 | -0.109
MAPKGSSKQQSEEDLLLQDFSRNLSAKSSALFFGNAFIVSAIPIWLYWRIWHMDLIQSAVLYSVMTLVSTYLVAFAYKNVKFVLKHKVAQKREDAVSKEVTRKLSEADNRKMSRKEKDERILWKKNEVADYEATTFSIFYNNTLFLVVVIVASFFILKNFNPTVNYILSISASSGLIALLSTGSK [SSR3] | 1.59 | -0.0489 | 57.8 | 57.2 | -0.131 | 0.126
